From PMC5850324, “Interactions between the Hepatitis C Virus Nonstructural 2 Protein and Host Adaptor Proteins 1 and 4 Orchestrate Virus Release” (mBio, 2018)

T1: GLuc-tagged T144A mutant AP-1B (μ subunit) (UniProt Q9Y6Q5 1-423, T144A)
T1 construct: μ subunit of adaptor protein complex AP-1B with T144A; also called phosphorylation site mutant AP-1; source: transfected cells (PCA); not shown: GLuc1 luciferase fragment, N-terminal, kept
T1 sequence: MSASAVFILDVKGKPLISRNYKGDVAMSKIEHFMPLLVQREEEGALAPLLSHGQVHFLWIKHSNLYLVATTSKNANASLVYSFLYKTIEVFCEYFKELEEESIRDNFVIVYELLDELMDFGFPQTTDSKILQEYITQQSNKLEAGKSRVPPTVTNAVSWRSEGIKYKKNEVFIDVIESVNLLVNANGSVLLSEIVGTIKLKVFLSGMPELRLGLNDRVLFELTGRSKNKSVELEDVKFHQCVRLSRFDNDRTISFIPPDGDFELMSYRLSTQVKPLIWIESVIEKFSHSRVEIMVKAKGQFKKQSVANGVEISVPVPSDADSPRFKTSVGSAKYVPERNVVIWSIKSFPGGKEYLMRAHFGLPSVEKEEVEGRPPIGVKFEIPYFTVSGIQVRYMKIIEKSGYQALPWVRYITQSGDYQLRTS

T2: GLuc-tagged T144A mutant AP-1A (μ subunit) (UniProt Q9BXS5 1-423, T144A)
T2 construct: μ subunit of adaptor protein complex AP-1A (AP1M1) with T144A; also called phosphorylation site mutant AP-1; source: transfected cells (PCA); not shown: GLuc1 luciferase fragment, N-terminal, kept
T2 sequence: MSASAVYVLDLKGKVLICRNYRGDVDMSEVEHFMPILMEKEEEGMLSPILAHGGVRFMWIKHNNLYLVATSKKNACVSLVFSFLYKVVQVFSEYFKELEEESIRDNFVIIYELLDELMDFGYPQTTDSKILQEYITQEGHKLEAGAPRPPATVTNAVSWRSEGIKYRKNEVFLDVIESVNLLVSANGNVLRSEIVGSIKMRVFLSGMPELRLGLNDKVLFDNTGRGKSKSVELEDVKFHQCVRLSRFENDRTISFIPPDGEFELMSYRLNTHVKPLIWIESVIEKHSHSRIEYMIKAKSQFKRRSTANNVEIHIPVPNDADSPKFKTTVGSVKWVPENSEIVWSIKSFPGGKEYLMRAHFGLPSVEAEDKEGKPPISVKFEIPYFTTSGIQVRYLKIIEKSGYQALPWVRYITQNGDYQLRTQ


How the values were obtained:
Experiment in all cases: split reporter (BiFC, NanoBiT); protein fragment complementation assay (split luciferase): GLuc1-AP μ subunit and GLuc2-HCV protein transfected pairwise into 293T cells; luciferase at 24 h; normalized luminescence ratio (NLR), positive if NLR >25 (>2.2 SD above a random reference set); mutant panels plotted relative to WT; NS2-AP-1B also tested after treatment with compound 7745, 12i, sunitinib or erlotinib
[1] = target: GLuc1-tagged μ subunit of the AP-4 complex (UniProt O00189)
[2] = target: T1, GLuc-tagged T144A mutant AP-1B (μ …); settings: partners not purified
[3] = target: T2, GLuc-tagged T144A mutant AP-1A (μ …); settings: partners not purified

Sequence of GLuc1-tagged μ subunit of the AP-4 complex (O00189 whole entry, one chain of several): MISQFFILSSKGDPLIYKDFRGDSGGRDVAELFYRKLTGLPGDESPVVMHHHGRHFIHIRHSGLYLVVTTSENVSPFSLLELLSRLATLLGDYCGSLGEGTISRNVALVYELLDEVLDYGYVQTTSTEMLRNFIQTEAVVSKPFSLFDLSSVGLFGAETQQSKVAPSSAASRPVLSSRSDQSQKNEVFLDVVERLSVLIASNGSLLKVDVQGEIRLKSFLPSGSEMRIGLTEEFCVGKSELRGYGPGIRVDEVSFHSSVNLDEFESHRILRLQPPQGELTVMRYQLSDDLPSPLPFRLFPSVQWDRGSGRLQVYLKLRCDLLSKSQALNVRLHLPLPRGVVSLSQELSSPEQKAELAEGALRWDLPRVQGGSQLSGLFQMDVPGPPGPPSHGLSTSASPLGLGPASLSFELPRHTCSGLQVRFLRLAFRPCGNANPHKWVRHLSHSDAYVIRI

| Molecule | fold reduction of binding (NLR) relative to WT NS2 [1] [fold] | fold reduction of binding (NLR) relative to WT AP-1B [2] [fold] | fold reduction of binding (NLR) relative to WT AP-1A [3] [fold] |
| --- | --- | --- | --- |
| GLuc-NS2 quadruple mutant (L202A-L203A-L216A-L217A) (natural protein) | 4 | – | – |
| GLuc-NS2 double mutant (L202A-L217A) (natural protein) | 3 | – | – |
| GLuc2-NS2 (hepatitis C virus nonstructural 2 protein, wild type) (natural protein, cut product of the polyprotein; also called WT NS2; GLuc-NS2; source: 293T, transfected (PCA); Huh7.5, transfected, membrane fraction (co-IP) and knockout cells (PCA); not shown: GLuc2 luciferase fragment, N-terminal, kept) YDASVHGQIGAALLVLITLFTLTPGYKTLLSRFLWWLCYLLTLAEAMVQEWAPPMQVRGGRDGIIWAVAIFCPGVVFDITKWLLAVLGPAYLLKGALTRVPYFVRAHALLRMCTMVRHLAGGRYVQMVLLALGRWTGTYIYDHLTPMSDWAANGLRDLAVAVEPIIFSPMEKKVIVWGAETAACGDILHGLPVSARLGREVLLGPADGYTSKGWSLL | – | ~2 | ~2 |
